The results in this text go back to the supplement of paper PMC10567573.

B1: TOR1AIP2 (parent)
chain: AGQEGEDTLRRRLLAPEAGSHPQQ
B2: VPS39 (parent)
chain: LRLENNHCHIEESEHVLKKAHKYS
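Also: lentivirally expressed fusions sorted by FACS into six bins by GFP to DsRed ratio, PSI derived from sequencing read proportions per bin multiplied by bin number.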

The variants in the first data set derive from B1. Briefly: protein stability index of a GFP-peptide fusion (GPS, HEK-293T) (PSI 1-6); higher = more stable. The following applies: c terminus: a fixed tail appended.
As to HGQEGEDTLRRRLLAPEAGSHPQQ, the protein stability index is 3.53.

For the variant EGQEGEDTLRRRLLAPEAGSHPQQ, the protein stability index is 4.54.

As to LGQEGEDTLRRRLLAPEAGSHPQQ, the protein stability index came to 2.

In the case of PGQEGEDTLRRRLLAPEAGSHPQQ, the protein stability index was found to be 4.86.

KGQEGEDTLRRRLLAPEAGSHPQQ: the protein stability index was determined as 2.54.

For IGQEGEDTLRRRLLAPEAGSHPQQ, the protein stability index turned out to be 4.08.

On to TGQEGEDTLRRRLLAPEAGSHPQQ, for which the protein stability index stood at 2.11.

RGQEGEDTLRRRLLAPEAGSHPQQ: the protein stability index came out at 2.29.

Regarding GGQEGEDTLRRRLLAPEAGSHPQQ, the protein stability index was determined as 3.25.

YGQEGEDTLRRRLLAPEAGSHPQQ: the protein stability index was determined as 2.26.

On to DGQEGEDTLRRRLLAPEAGSHPQQ, for which the protein stability index came out at 4.05.

As to NGQEGEDTLRRRLLAPEAGSHPQQ, the protein stability index was found to be 2.5.

Take VGQEGEDTLRRRLLAPEAGSHPQQ: the protein stability index worked out at 3.31.

Turning to FGQEGEDTLRRRLLAPEAGSHPQQ, the protein stability index was found to be 1.83.

In the case of QGQEGEDTLRRRLLAPEAGSHPQQ, the protein stability index came to 2.57.

As for WGQEGEDTLRRRLLAPEAGSHPQQ, the protein stability index was found to be 3.19.

Take SGQEGEDTLRRRLLAPEAGSHPQQ: the protein stability index amounted to 1.4.

With AQQEGEDTLRRRLLAPEAGSHPQQ, the protein stability index amounted to 1.64.

Take AAQEGEDTLRRRLLAPEAGSHPQQ: the protein stability index worked out at 4.25.

On to APQEGEDTLRRRLLAPEAGSHPQQ, for which the protein stability index amounted to 1.51.

Consider ADQEGEDTLRRRLLAPEAGSHPQQ, for which the protein stability index stood at 5.64.

In the case of AHQEGEDTLRRRLLAPEAGSHPQQ, the protein stability index is 3.58.

On to ANQEGEDTLRRRLLAPEAGSHPQQ, for which the protein stability index amounted to 3.23.

Take AFQEGEDTLRRRLLAPEAGSHPQQ: the protein stability index came to 2.99.

As to AEQEGEDTLRRRLLAPEAGSHPQQ, the protein stability index is 2.74.

Regarding AKQEGEDTLRRRLLAPEAGSHPQQ, the protein stability index is 3.32.

For ACQEGEDTLRRRLLAPEAGSHPQQ, the protein stability index was determined as 1.6.

On to AMQEGEDTLRRRLLAPEAGSHPQQ, for which the protein stability index turned out to be 1.55.

For the variant AIQEGEDTLRRRLLAPEAGSHPQQ, the protein stability index was 2.19.

The variants in the next data set derive from B2. The description is as above. The following applies: c terminus: a fixed tail appended.
Take LRLENNHCHIEESEHVLKKAHLYS: the protein stability index stood at 1.99.

Turning to LRLENNHCHIEESEHVLKKAHGYS, the protein stability index came to 2.96.

LRLENNHCHIEESEHVLKKAHFYS: the protein stability index was 1.84.

Regarding LRLENNHCHIEESEHVLKKAHMYS, the protein stability index is 1.62.

With LRLENNHCHIEESEHVLKKAHVYS, the protein stability index was determined as 2.57.

As for LRLENNHCHIEESEHVLKKAHWYS, the protein stability index amounted to 1.84.

In the case of LRLENNHCHIEESEHVLKKAHIYS, the protein stability index is 1.65.

On to LRLENNHCHIEESEHVLKKAHCYS, for which the protein stability index came to 2.02.

Consider LRLENNHCHIEESEHVLKKAHQYS, for which the protein stability index worked out at 2.12.

On to LRLENNHCHIEESEHVLKKAHRYS, for which the protein stability index was 2.34.

As for LRLENNHCHIEESEHVLKKAHNYS, the protein stability index was determined as 2.44.

Turning to LRLENNHCHIEESEHVLKKAHTYS, the protein stability index was determined as 3.65.

Take LRLENNHCHIEESEHVLKKAHEYS: the protein stability index is 2.4.

LRLENNHCHIEESEHVLKKAHPYS: the protein stability index was found to be 2.79.

For the variant LRLENNHCHIEESEHVLKKAHHYS, the protein stability index was 2.58.

Regarding LRLENNHCHIEESEHVLKKAHDYS, the protein stability index came to 3.15.

For the variant LRLENNHCHIEESEHVLKKAHSYS, the protein stability index was 2.51.

LRLENNHCHIEESEHVLKKAHAYS: the protein stability index came to 2.48.

Take LRLENNHCHIEESEHVLKKAHYYS: the protein stability index amounted to 2.55.

Take LRLENNHCHIEESEHVLKKAHKKS: the protein stability index amounted to 2.21.

Take LRLENNHCHIEESEHVLKKAHKSS: the protein stability index worked out at 2.77.

Regarding LRLENNHCHIEESEHVLKKAHKWS, the protein stability index was 1.72.

Regarding LRLENNHCHIEESEHVLKKAHKDS, the protein stability index was 2.15.

Consider LRLENNHCHIEESEHVLKKAHKTS, for which the protein stability index amounted to 2.4.

With LRLENNHCHIEESEHVLKKAHKLS, the protein stability index amounted to 2.7.

In the case of LRLENNHCHIEESEHVLKKAHKQS, the protein stability index turned out to be 2.45.

As to LRLENNHCHIEESEHVLKKAHKNS, the protein stability index stood at 3.05.

As for LRLENNHCHIEESEHVLKKAHKGS, the protein stability index stood at 2.75.

Take LRLENNHCHIEESEHVLKKAHKIS: the protein stability index amounted to 3.14.

As to LRLENNHCHIEESEHVLKKAHKCS, the protein stability index amounted to 2.25.

In the case of LRLENNHCHIEESEHVLKKAHKPS, the protein stability index turned out to be 2.56.

As to LRLENNHCHIEESEHVLKKAHKAS, the protein stability index came to 2.76.

In the case of LRLENNHCHIEESEHVLKKAHKFS, the protein stability index was determined as 2.28.

As for LRLENNHCHIEESEHVLKKAHKES, the protein stability index amounted to 3.12.

For the variant LRLENNHCHIEESEHVLKKAHKMS, the protein stability index is 2.17.

In the case of LRLENNHCHIEESEHVLKKAHKVS, the protein stability index was determined as 2.05.

LRLENNHCHIEESEHVLKKAHKRS: the protein stability index is 2.25.

For the variant LRLENNHCHIEESEHVLKKAHKHS, the protein stability index was 3.13.

For the variant LRLENNHCHIEESEHVLKKAHKYC, the protein stability index was determined as 2.17.

For LRLENNHCHIEESEHVLKKAHKYP, the protein stability index stood at 1.74.

Take LRLENNHCHIEESEHVLKKAHKYR: the protein stability index amounted to 2.38.

As for LRLENNHCHIEESEHVLKKAHKYG, the protein stability index stood at 2.84.

As for LRLENNHCHIEESEHVLKKAHKYD, the protein stability index was 2.25.

In the case of LRLENNHCHIEESEHVLKKAHKYY, the protein stability index was determined as 2.28.

Consider LRLENNHCHIEESEHVLKKAHKYF, for which the protein stability index turned out to be 2.37.

For the variant LRLENNHCHIEESEHVLKKAHKYM, the protein stability index worked out at 2.18.

With LRLENNHCHIEESEHVLKKAHKYH, the protein stability index is 2.65.

With LRLENNHCHIEESEHVLKKAHKYT, the protein stability index was 2.07.

With LRLENNHCHIEESEHVLKKAHKYK, the protein stability index worked out at 2.09.

LRLENNHCHIEESEHVLKKAHKYW: the protein stability index was 2.24.

For the variant LRLENNHCHIEESEHVLKKAHKYV, the protein stability index worked out at 1.83.

With LRLENNHCHIEESEHVLKKAHKYE, the protein stability index came to 3.82.

On to LRLENNHCHIEESEHVLKKAHKYL, for which the protein stability index stood at 2.08.

For the variant LRLENNHCHIEESEHVLKKAHKYI, the protein stability index was determined as 2.04.

Regarding LRLENNHCHIEESEHVLKKAHKYQ, the protein stability index is 1.92.

For LRLENNHCHIEESEHVLKKAHKYA, the protein stability index was found to be 1.29.

As to LRLENNHCHIEESEHVLKKAHKYN, the protein stability index stood at 2.3.

With LRLENNHCHIEESEHVLKKAYKYS, the protein stability index was determined as 2.25.

Turning to LRLENNHCHIEESEHVLKKASKYS, the protein stability index is 2.29.

Turning to LRLENNHCHIEESEHVLKKARKYS, the protein stability index is 2.

Consider LRLENNHCHIEESEHVLKKAQKYS, for which the protein stability index is 2.62.

LRLENNHCHIEESEHVLKKAWKYS: the protein stability index was 2.12.

Turning to LRLENNHCHIEESEHVLKKATKYS, the protein stability index is 2.27.

In the case of LRLENNHCHIEESEHVLKKAPKYS, the protein stability index was found to be 1.97.

For the variant LRLENNHCHIEESEHVLKKAVKYS, the protein stability index came to 3.04.
